Results reported in patent US20260144239A1, “Immune Cell-Engrafted Non-Human Animals and Non-Human Animal Models” (LAPIX Therapeutics, Inc., priority 2022, published 2026).

Columns and labels:
[1] = tested on: C57B/6 control mice; assay: Immunogenicity in C57B/6 control mice, antibody titers by ELISA; type: in vivo, mouse
Method: (§1) Three healthy human donors were used to generate three engrafted mice designated HD1, HD2 and HD3. On Day 29 and Day 36, HD1, HD2 and HD3 were administered FVIII. The same amounts of antigen were administered to three C57B/6 control mice on the same date. Two weeks later (on Day 43), blood from each mouse was collected. Titers of mouse anti-FVIII antibodies, human anti-FVIII antibodies, mouse anti-GAA antibodies and human anti-GAA antibodies were measured using ELISA (FIGS. 8A-8B).
as §1, with “GAA.” for “FVIII.”, “anti-GAA” for “anti-FVIII”, “anti-FVIII” for “anti-GAA”, “8C-8D).” for “8A-8B).”
(§2) Healthy human donors were used to generate eight engrafted mice. […] The same amount of antigen was administered to three C57B/6 control mice on the same date. Two weeks later (on Day 43), blood from each mouse was collected.
(§3) Healthy human donors were used to generate 11 engrafted mice. […] The same amount of antigen was administered to three C57B/6 control mice on the same date. Two weeks later (on Day 43), blood from each mouse was collected.

[2] = tested on: humans; conditions: in vivo; cited from earlier work
[3] = tested on: engrafted mice; assay: Human CD20 on B cells of engrafted mice that developed antibodies (flow cytometry); type: in vivo, mouse; conditions: CD20+/CD19+ cells (FIGS. 9A-9C)
Source text: Presence of human CD20 was detected on B cells of mice that developed antibodies to different biologics. CD20 is expressed on activated, antibody-producing B cells.

[4] = tested on: engrafted mice; assay: Immunogenicity in engrafted mice (NRGS mice with human immune system), antibody titers by ELISA; type: in vivo, mouse
Method: as §1
as §1, with “GAA.” for “FVIII.”, “anti-GAA” for “anti-FVIII”, “anti-FVIII” for “anti-GAA”, “8C-8D).” for “8A-8B).”
as §2, §3

## GAA: biologic antigen administered to engrafted and C57B/6 mice; abbreviation not spelled out in the text
[1]; C57B/6 control mice
  mouse antibody titer to the antigen not administered (anti-FVIII after GAA, anti-GAA after FVIII): none
[1]; C57B/6 control mice, specificity control of titer assay
  human antibody titer to the antigen not administered (anti-FVIII after GAA, anti-GAA after FVIII): None
[1]; six (FVIII), 5 (GAA), three (IFN-β), three (AAV9) C57B/6 mice
  percent of C57B/6 mice that developed mouse antibodies to the administered antigen: 100%
[1]; three C57B/6 mice, first experiment (FIG. 8B, 8D)
  percent of C57B/6 mice that developed mouse antibodies to the administered antigen: 100%
[2]
  clinically reported immunogenicity rate in humans: 89-100%
[3]
  CD20-expressing B cells after antigen exposure: had CD20-expressing B cells
[4]; 12 (FVIII), 14 (GAA), eight (IFN-β), 11 (AAV9) engrafted mice, antigen Day 29 and Day 36, blood Day 43, ELISA
  percent of engrafted mice that developed human antibodies to the administered antigen: 100%
[4]; antigen Day 29 and Day 36, blood Day 43, ELISA
  engrafted mice that developed mouse antibodies to the administered antigen: none
[4]; engrafted mice
  mouse antibody titer to the antigen not administered (anti-FVIII after GAA, anti-GAA after FVIII): none
[4]; engrafted mice, specificity control of titer assay
  human antibody titer to the antigen not administered (anti-FVIII after GAA, anti-GAA after FVIII): None
[4]; three engrafted mice (HD1, HD2, HD3), antigen on Day 29 and Day 36, blood on Day 43, ELISA
  engrafted mice that developed human antibodies to the administered antigen (number of mice): all three
[4]; three engrafted mice, human antibodies to administered antigen, antigen Day 29 and Day 36, blood Day 43
  observed immunogenicity rate in the engrafted mice: about 100%
